Experimental data from US20250354169A1.

B1: anti-FAM19A5 ("1-65") scFv, secreted by cells transduced with scAAV9-CMV-1-65-ScFv (scFv, part only)
scFv: ALTQPSSVSANPGETVKITCSGGGSSGYGYGWYQQKSPSSAPLTVIYWNDKRPSDIPSRFSGSKSGSTHTLTITGVQAEDEAVYFCGNDDYSSDSGYVGVFGAGTTLTVLSGGGGSSGGGGSAVTLDESGGGLQTPGGALSLVCKASGFTFSSYQMGWVRQAPGKGLEWVGVINKSGSDTSYGSAVKGRATISRDNGQSTVRLQLNNLRAEDTGTYFCAKGSASYITAATIDAWGHGTEVIVSS
modifications: C-terminal FLAG tag
B2: anti-FAM19A5 ("2-13") scFv, secreted by cells transduced with scAAV9-CMV-2-13-ScFv (scFv, part only)
scFv: ALTQPSSVSANPGETVKITCSGGSYSYGWFQQKSPGSALVTVIYWDDERPSDIPSRFSGALSGSTNTLTITGVQADDEAVYFCGTEDISGTAGVFGAGTTLTVLSGGGGSSGGGGSAVTLDESGGGLQTPGGALSLVCKASGFTFSSHGMFWVRQTPGKGLEYVAEITNDGSGTNYGSAVKGRATISRDNGQSTVRLQLNNLRAEDTGTYFCARSTYECPGGFSCWGDTGQIDAWGHGTEVIVSS
modifications: C-terminal FLAG tag

Biological target: human FAM19A5-Fc protein (human) (UniProt Q7Z5A7)
Assay: binding inhibition, flow cytometry: 0.1 ug FAM19A5-Fc pre-incubated with 200 uL scFv supernatant, added to U87MG cells, detected with anti-human IgG 488; control GFP AAV supernatant

Chain of UniProt Q7Z5A7 (Q7Z5A7 44-132): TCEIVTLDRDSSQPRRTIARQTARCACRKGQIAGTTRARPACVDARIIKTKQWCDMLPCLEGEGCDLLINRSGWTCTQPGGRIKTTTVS

Binder | reduction of the MFI of the binding of human FAM19A5-Fc to U87MG cells [%]
B1 | 19
B2 | 68
